Source: the DeepSol protein solubility set

Assay: soluble on expression in E. coli; label from the status in PepcDB or PDB records

Soluble on expression in E. coli, not soluble:
MGSDKIHHHHHHLDTIPTTYVDAGSVFGKTGDAEKVLNGGWNYLMETFNSYANPGYGAMLRANDAMGSDVVLNSKYGFRTHNEFSAIYGKGGTNTLSWLLAYRVINDCNGVLDNIDAAEGTQADRNRIKGQALALRGFLYLHLASCYSFAIDKDPDAVCAPIYTQSTDETIAAEGKPASSVSEVYAQSINDLEEALELIPETYVRDAKHKIDNEVVLGILSRACLYARQWEKAKTYSDKLLAKDNYLMTESEYKAGFNSVDNKEWIWGHAQTNDQSNASYQFHYLDTTTKGSYYYSFNVDPYFRDLFEDGDYRKEMLFWATDPGADVESAAYVWMRNSKFRFRDIENQLGDIVLMRVAEIYLINAEAKAHLNDPDAINKLNDLKTARGAKTIHTNLSQQDLLETIWLERRKELWGEGFSLIDIIRNQQTVVRNAYPEGPIDYIYTDENGQTHTLKKKTQGHRFFNFPDKSAFCPNSKYYLYRITDSEELANKNLYKDHPKLSIYTK, MGSDKIHHHHHHLKSAEGSTWNCCPIDWRAFQSNCYFPLTDNKTWAESERNCSGMGAHLMTISTEAEQNFIIQFLDRRLSYFLGLRDENAKGQWRWVDQTPFNPRRVFWHKNEPDNSQGENCVVLVYNQDKWAWNDVPCNFEASRICKIPGTTLN, MGSDKIHHHHHHLNGHGYHVTGTKTTQDGVEAARMSGIECYQLVLTPELECDADELSALLQVDVLIVTLPASRTAEGGEGYAQAVQQLVNMARVFHVPRIIFTSSTSVYGDGSGTVRETSPLQPTTVAGKTLVSLEQWLQHLPDISVDILRLAGLVGGDRHPGRFLAGKTNLPRGNHGVNLVHQEDVLAAILLLLKLPNGGHIYNLCATEHPARQDFYPEQARRLHVSTPQFAPVTDSSQGRIVDGQRICHELGFDYQYPNPSTMPLNAGESR, MGSDKIHHHHHHLRPDLEHYYLIDQYLENKLTGQELAAFEQQLMQDKAFANEVQEQRMLNNLILEAELKSVRSQIEKDLLNMQTPSFFRMHWQWISAGALCLLGSLFFMLPGKKDIQTVSLQKSAASHIEKENNPDIAPVENTTQKTATALNLPAKTDISDIVTRTQATDTAQAGSLVIAGTPVIVPVNTKTEPALETTAGEENKKTDCSLTKITSVITTENSCMNTETGSIHIDKISGGIAPYTYTLNNKKIKEKNVSALGAGIYEVKISDRNGCLSEQKISILEKNCTPAIQQGTKFNINPMLGETCSIAFDTDKKGSLTIYNRSGKIVYRVTNPSLDYIEWNGSDGTGALAEAGLYVYLIDYTDGTKVTGEVTITR, MGSDKIHHHHHHLRRLLNTLYVTTPDSYLAREGENILIRLEEKIVFRIPSHNIEAIVYFGYPGASPSLLGLCAEKGITVSFFSPNGRFLARVEGPQTGNVLLRRKQYRMADEENQVPVLAKYFIAAKILNSRAVLQRGRRDHPDKVGDSIERSIALLAGSVKKVFDSENLNDIRGLEGDAAQRYFSEVDNLILEQKQDFFMAARSRRPPLDNVNALLSFFYTLLVHECRAALESVGLDPAVGFLHRDRPGRPSLALDLMEELRPYLGDRMVLSLINRKQINKDDFITKENGAVYVLPDTRKMLLTVWQKRKQEEIIHPYLEEKIPIGLLPYTQALLLARFLRGDLDAYPAFIWK, MGSDKIHHHHHHLSCCGQIGKITVGNGIWGILEEGMQSKAGTADQGWALEEKLDEFNRHQHPFNGSGADESFAYVIKKGDQVVGGVAASSDDNAIGYIELLWVDETMRRQGLGRALLATVEQALQAAGCKRVRLETFDYQAPAFYLENGYHEFGKLNYDYAGVIEYFFVKMLSLPIGYNIPPAFSIEAAEDLAMEAIENKLHAYNVKMKPLLQQKMGVTFTFLAEENGQCIGGIFGYSTMYKIGYIESLWVAETNRHAGVGTALVDVLVNALKDFGCPIVHLDTMSYQGAAFYKALGFEQFGQLTYPEIDAAEVFFVKHLVSVGERTINANK, MGSDKIHHHHHHLTWPEASKAASENGSTLVWPFGACEQHGPHLPLITDTFFAENILIKTLNRLPENMPIWMMPSQSIGFSPEHQAFPGTLSLSADVLISMVTDVGQQIASMGFNRLVFFNAHGGQIGLLQAVSRQLRIQCPSIAVLPCFLWSGVPGLDQLLPEKEVEEGLHAALAETSLMLHMARDLVRNDSYLEIKNVDKQIVTTPKGWSLEGASPCAWLTEDLSSSGVIGDASSSNSELGAALENALVDHWIALFTSLLESDWPPIRSERPVSSS, MGSDKIHHHHHHMAANNTITFYDLALSTGATISPFVWATKYALKHKGFDLDVVPGGFTGILERTGGKTERLPAIVDDGEFVLDSWGIVEYLDAKYPDRPVLIPHESVAATLKALDNWFWNAAVGPWMFCFCQDYRDLSLPQDHEYVTHSREKMLGRKLEEVQAGREERLPKISAALEPLRAALAQHQWLGGSSPNYADYRIMGGILFTASVCKTPVLANDDPLRDWIERCLDLYGGLGRHPGLFPLFGLEQREGDPDLFNRAAGQGGIYKRNTGPESTRAETQRITEGMKK, MGSDKIHHHHHHMAATFLDIAITPDVMDVQHEMGSDSLWQTPRSRRQADRFGDSEAGMIATRDSFYLATVSQSGWPYIQHRGGPPGFLHLLDDITLAMADFGGNRQYITTGNLRGSDRACLFLMDYPRRARLKIYATVEVLAAEDHPQLLAQVAPANYRARIERLFLFHLQAFDWNCPQHITPRYSAQQVAEYSQNLQQRIHDLEQENQRLQQQLARRGE, MGSDKIHHHHHHMAAVAHVKIDAAGEKRVLYLVDKSGFGGVQTIAYTLMRHGVDERIGMDFFFLRNINDRFGMEDVREPNVFYSRATHRYSLRPFVEILRFIREKKVSILHLNGNKSIILGLVIKKLFQPTIKIIAHEHGGVFDYSRWYAAFLKSFRNSFDLFITISNYRKHFLVERCLVAPSAIRVIDNFVDPARLATASASACGHTDRCDSEGDKPFVIGYVGGLSRIKGCDVLIRALPPLRERLGNFRVMIAGDGPARAELEELVAALGLGDIVSFLGFVDPPGIAYAQFDMMVIPSRSEEGPICLYEAWMMGLPVVASNAPVLNERIRDGETGILFQSDEPCDLAEKIYSVCRNPDVAAHIRAGGSCEAARHTVERYRGDLRDVYLSL, MGSDKIHHHHHHMACGRMYHFNVFAYGVEEILREVSKKGTESDIRLYNRKEEDGVMTFIEPIKYPDKVSSLTDSIYPTDLFIINGENLDKYFAETVIALDLFGKTRGIIVASEDKQSTIRKLLKDTNIQPEFFSGRPMEIIDRIKAFKIERNEQDTLVVIDHYFKVKSVGTVILGFVLSGKIRKHQDLYLSGINREVQVRSIQVNDVDFDEAEAGTRVGVALKNVEVEELSRGMFLAEKPFEYTNQVKDSVVFHKSLKGRDTMSDPYISDLMNFVKCNPEGDAYTTRFKLPLLKDSFVMADQNGFPRVVGYSKVKR, MGSDKIHHHHHHMADKRTEGSGKGGAKAAGKGGLGEVVLLSGGNPQIAKGYGDAPVQAYIAAMPGWKRAVGERLDAIVERTVPGVYKAVKWNSPFYGFEGEGWFLSFHCMTKYIKVAFFRGASLQPLPPGASKQKDVRYLDIYEDAPFDEARFADWVAQASRLPGERM, MGSDKIHHHHHHMADLCVNLVPLFDALPQDEKMQIEKLVQHKNYQKGEVIIDPTINDNLVIVADGNAKQYTLDEDGYENVLQILHTGDYIGEDWLFGQKNINNYVEATEHSEICLLKRQDLLKLMHKQPELSIRLLELSIVKVSEMQKQIHLMALPKVEDRLLKYLQTYADEIGKNNFTLPLKMKDLALYLGTTPETLSRKFALLEKQGQLKRQLRRIELFEN, MGSDKIHHHHHHMADNKIIQHVYIVGSKGIPANYGGFETFVEKLTAGQENRQIKYHVASRFDNSEQAGKKQRFEYNGADVFSIDVPNIGSAQAIVYDYKALKEAIRISKQNQDKHPIFYVLANRIGPFAKHFAKEIHALGGRFYLNPDGHEWARAKWPKPVRKYWKYSEKKMVAAADLIIADNPEIEKYIKKEYSSFHPQTTYIAYGTDVQRSKLTMKDQKVRDWFKQKRITENNYFLVVGRFVPENNYETMIREFMTSRTKKDFVLVTNVEKNRFYERLKQRTHFDQDPRIKFVGTVYDQELLKYIRENAFAYFHGHEVGGTNPSLLEALSMTRLNMLIDVPFNRAVAKEGAMYWNKAIGNLTAQINQTETYDKKRIIDYTQAARKRVTDEFTWESIIAKYEELFVS, MGSDKIHHHHHHMAEAQLSLNLDIKHDASLSDFSGPGWMSIIDAVRQLHVGLIGQLYLFGSPATGKSHLLSAICESFIEMDKSAICLSLNELIHTDVNVLSSLENFSLIAIDDLEVIEQNSQWQEALFHLINRSREGQRQLLFAANKPASELPFQLRDLLTRLAQAPSFKVPTGHDLADREALLQSILRRRGWQFDERIANYLLTEGPHRIGAMMEVLNYIQPMFSNLGRSNISKAVIGDALRTIDEQTLAAELADIAQESQVDNDAADQDQHSQHTMPLDF, MGSDKIHHHHHHMAETFPLLAAQPIYDNKNRFYAVELLYRSALNLTAETVGDTAATSEVVFNLCAGITSQTEHYDATAFINVSSEFLVSQSFLPLEPDKVVIELVERIKPTRAVVNAVARWYEKGFRFALDDFEFDPAWEPLLQYASYIKVDVSTLTLAQARVFKQKLSGFKGKWLAERVEDEATKQAYEELGFELFQGYYFAKPAIVYGTRLEPSSLQLAKVLSLCFEEEPDLTELSRVISEDPQLSVCLLKIVNSPLYPTASPITRVKDVIMRLGIEKLRRWIALIGAVTASSPEASRMVLVRAQMCYELAKWKSSPGLDADQCYFVGLLSGVDIMLGVDKASFFEKLPLSEQTRKAVEDCDGPMGQCLRIALKLERLVRMKEGLDKVDSRLLTTYQSVSTKVQELFNTI, MGSDKIHHHHHHMAFILMQNINKTFHGVKALNRVNLSLDYGEALCLAGQNGCGKSTLIKILSGVYQPDKGAEIQIGASKYTKLTPQASIEQGIQVIYQDLALFPNLTVAENIAINLHRKLGWVSQSEIHQVALNAILSINADLDLNAILEDLPIAQQQLVAICRALAQNARLLIMDEPTASLTAKEVQDLLKVVLKLKSKGISIIFVSHKLQEVMSVSDTVLVLKNGNMVGQYPISEMDEKRLGFLMTGLEIDYKRLDLPDFSQNRTVLEVQNLTLPNQYESINFSLREGEIIALTGLLGSGRTELCLSLFGITQPKSGDILLNGEKVIFQNNRDAIKQGIAYVSEDRMTTGLIMTESIHHNIISTIFHKITDKFNIIKSSKAYNYSQELIESLKIKVTDSDLPVNTLSGGNAQRVSIAKWLAIDPRIIILDAPTIGVDIANKEGIFQIIRTLAQKGIAVIFVTDEVEEAYYNSHKVIVMKKGKIVGEILPIYTTEKSIAEVVYENHQ, MGSDKIHHHHHHMAFNLDALASVVVDDSIKGIPFGARLGIADIANQGWNVLAGDLPLPAAIIRADALAHNSRWMQRFVSERGALIAPHVKTTMCPQIIARQIADGAWGVTVATVQQMRVCRNFGADRIILANQAVGRSELDAITAMVKEPDLDFMMIVDSAVGIEAAAEAVRRNRLDRPLQLLLERGYPGGRTGCRTNDIALALARQIRATPELRLVGIEAFEGLIQTENGSPEQAVGLFMDEIAALFGLCADDGLFESDAPLVTAGGSSHYDIVIDRLAHCTARVVTRSGCYVTHDSGLYRIAHQRLQAKIGEQDGLRRALEIWTYVQSIPEPGLALLTAGRRDCGTDSGFPVPLLLSSAGAYPRDLPPGCEVINLNDQHAYMRFPPDLPLAVGDRVGLGISHPCTTFDKWQIIYLVDSDYRVIEAMKTFF
